Test results published in US20050042747A1, “Hivgp120-induced bob/gpr15 activation” (priority 2001, published 2005).
Entries after “also recorded” stand apart in the source; their conditions may differ. Like-named read-outs stand apart in the source and are kept apart here.

Legend:
Bob = molecular target: T1, Bob (Homo sapiens, UniProt P49685); assay: gp120-induced calcium flux, Ghost (3) cells transfected with Bob (Fluo-4); format: cell-based; design: key to minimal concentration of gp120 resulting in a significant calcium flux: — = no calcium flux seen at any dilution tested; conditions: for minimal concentration of gp120 resulting in a significant calcium flux: Ghost (3) Bob cells
T1 construct: host or cells: Ghost (3) cells (human osteosarcoma, also transfected with CD4 and a GFP reporter)
T1 sequence (P49685 1-360): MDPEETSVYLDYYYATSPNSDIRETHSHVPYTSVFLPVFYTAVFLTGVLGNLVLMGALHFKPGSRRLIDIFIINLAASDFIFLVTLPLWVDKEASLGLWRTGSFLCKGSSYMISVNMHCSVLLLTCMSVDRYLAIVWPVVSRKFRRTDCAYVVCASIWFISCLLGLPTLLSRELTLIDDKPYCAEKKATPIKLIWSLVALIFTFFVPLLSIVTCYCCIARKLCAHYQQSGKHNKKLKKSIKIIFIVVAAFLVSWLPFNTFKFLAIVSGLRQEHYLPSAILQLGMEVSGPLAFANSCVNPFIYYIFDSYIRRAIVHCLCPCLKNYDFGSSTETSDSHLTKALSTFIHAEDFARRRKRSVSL
Method: (§1) Calcium studies were done on HT-29 cells and Ghost (3) cells loaded with Fluo 4. The cells were placed in Locke's buffer containing 5 μg/ml Fluo 4 AM ester (Molecular Probes) for 20 to 30 minutes, then in Locke's buffer for an additional 30 minutes before testing. Various concentrations of gp120IIIB (X4 trophic), gp120CM235 (R5 trophic), gp120mN (X4 trophic), gp12093TH975 (nonsyncytium-inducing primary isolate from an asymptomatic subject, trophism undetermined but likely R5), and gp120SF2 (X4R5 trophic), ranging from 10 nM to less than 1 pM, were added in Locke's buffer.^6 The gp120 proteins were obtained from the AIDS Research Reagent Referral Program. Some HT-29 cells were given one of the following pretreatments: 50 μg/ml anti-Bob37 overnight, 1 μg/ml pertussis toxin overnight, or 4.6 μg/ml U73122 for one hour. With the HT-29 cells only, similar tests were also performed with SDF-1, MIP-1α, MIP-1β, and RANTES rather than gp120. The cells were visualized every 4 seconds in a confocal microscope, using 488 nm argon laser excitation and detection filters appropriate for fluorescein-like dyes.
(§2) Human osteosarcoma cell lines were transfected to express CD4, one or another of the HIV coreceptors, and a Green Fluorescent Protein reporter for active HIV infection, for the purpose of testing which of the known coreceptors was used to induce HIV infection by a given HIV strain (Morner A. J Virol 73:2343-9, 1999 and Deng K Nature 388:296-300, 1997). These cells were obtained from the AIDS Research and Reference Reagent Program, courtesy of Dr. Vineet KewalRamani and Dr. Dan Littman. These cells were grown in DMEM with 10% bovine calf serum supplemented with 0.5 mg/ml G418, 0.1 mg/ml hygromycin, and 1 microgram/ml puromycin, and were used at low passage number (less than 10). We have discovered that these cell lines are also activated by gp120 of certain viral strains, inducing a calcium flux in these cells.
Within 4 days of plating, coreceptor-transfected Ghost (3) cells (as well as the parent cell line not transfected to express any HIV coreceptors as a control) were put in Locke's medium, then treated with Fluo-4 (5 micrograms/ml for 30 minutes at 37° C.). After an additional 30 minute incubation in Locke's buffer at room temperature, the cells were examined in a confocal microscope while gp120 of various viral strains was added, and the cells were examined at 4 second intervals to look for a gp120-induced calcium flux. The results are given in the following table, expressed as the minimal concentration of gp120 resulting in a significant calcium flux. “−” means that no reproducible calcium flux was observed. “ND” means that the gp120 of that viral strain was not tested with the stated coreceptor.
These cells were treated with serial dilutions (100 or 250 nM to at least 1 pM, or even less if calcium fluxes were noted) of gp120. Gp120s from each of four HIV-1 strains: IIIB, CM235, SF2, and […] were used. Listed is the greatest dilution which induced a significant, reproducible calcium flux. The parental line is known to express CXCR4 at very low levels. Those results indicated by an asterisk are thought to represent this artifact.

CCR8 = molecular target: T2, CCR8 (Homo sapiens, UniProt P51685); assay: gp120-induced calcium flux, Ghost (3) cells transfected with CCR8; format: cell-based; design: key: — = no calcium flux seen at any dilution tested; conditions: Ghost (3) CCR8 cells
T2 construct: host or cells: Ghost (3) cells (human osteosarcoma, CD4+)
Source text: as §2
(§3) Within 4 days of plating, coreceptor-transfected Ghost (3) cells (as well as the parent cell line not transfected to express any HIV coreceptors as a control) were put in Locke's medium, then treated with Fluo-4 (5 micrograms/ml for 30 minutes at 37° C.). […] The results are given in the following table, expressed as the minimal concentration of gp120 resulting in a significant calcium flux. […]

[1] = test system: Ghost (3) parental cell line; assay: gp120-induced calcium flux, Ghost (3) parental cell line; format: cell-based, human; design: key: — = no calcium flux seen at any dilution tested
Method: as §1, §2
(§4) Within 4 days of plating, coreceptor-transfected Ghost (3) cells (as well as the parent cell line not transfected to express any HIV coreceptors as a control) were put in Locke's medium, then treated with Fluo-4 (5 micrograms/ml for 30 minutes at 37° C.). After an additional 30 minute incubation in Locke's buffer at room temperature, the cells were examined in a confocal microscope while gp120 of various viral strains was added, and the cells were examined at 4 second intervals to look for a gp120-induced calcium flux. The results are given in the following table, expressed as the minimal concentration of gp120 resulting in a significant calcium flux. “−” means that no reproducible calcium flux was observed. “ND” means that the gp120 of that viral strain was not tested with the stated coreceptor. […]

CCR5 = molecular target: T3, CCR5 (Homo sapiens, UniProt P51681); assay: gp120-induced calcium flux, Ghost (3) cells transfected with CCR5; format: cell-based; design: key: — = no calcium flux seen at any dilution tested; conditions: Ghost (3) CCR5 cells
T3 construct: host or cells: Ghost (3) cells (human osteosarcoma, CD4+)
Method: as §1, §2, §4

CX3CR1 = molecular target: T4, CX3CR1 (Homo sapiens, UniProt P49238); assay: gp120-induced calcium flux, Ghost (3) cells transfected with CX3CR1; format: cell-based; design: key: — = no calcium flux seen at any dilution tested; conditions: Ghost (3) CX3CR1 cells
T4 construct: host or cells: Ghost (3) cells (human osteosarcoma, CD4+)
T4 sequence (P49238 1-355): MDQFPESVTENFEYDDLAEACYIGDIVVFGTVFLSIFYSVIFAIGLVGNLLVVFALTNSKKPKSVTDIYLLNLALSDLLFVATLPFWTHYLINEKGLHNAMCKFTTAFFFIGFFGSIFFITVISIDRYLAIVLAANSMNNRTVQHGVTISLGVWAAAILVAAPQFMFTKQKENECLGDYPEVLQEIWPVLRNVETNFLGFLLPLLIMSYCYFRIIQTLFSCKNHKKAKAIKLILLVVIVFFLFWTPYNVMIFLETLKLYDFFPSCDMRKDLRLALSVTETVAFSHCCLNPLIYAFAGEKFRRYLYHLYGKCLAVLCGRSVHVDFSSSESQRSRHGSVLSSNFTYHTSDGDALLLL
Source text: as §2, §3

CCR4 = molecular target: T5, CCR4 (Homo sapiens, UniProt P51679); assay: gp120-induced calcium flux, Ghost (3) cells transfected with CCR4; format: cell-based; design: key: — = no calcium flux seen at any dilution tested; conditions: Ghost (3) CCR4 cells
T5 construct: host or cells: Ghost (3) cells (human osteosarcoma, CD4+)
T5 sequence (P51679 1-360): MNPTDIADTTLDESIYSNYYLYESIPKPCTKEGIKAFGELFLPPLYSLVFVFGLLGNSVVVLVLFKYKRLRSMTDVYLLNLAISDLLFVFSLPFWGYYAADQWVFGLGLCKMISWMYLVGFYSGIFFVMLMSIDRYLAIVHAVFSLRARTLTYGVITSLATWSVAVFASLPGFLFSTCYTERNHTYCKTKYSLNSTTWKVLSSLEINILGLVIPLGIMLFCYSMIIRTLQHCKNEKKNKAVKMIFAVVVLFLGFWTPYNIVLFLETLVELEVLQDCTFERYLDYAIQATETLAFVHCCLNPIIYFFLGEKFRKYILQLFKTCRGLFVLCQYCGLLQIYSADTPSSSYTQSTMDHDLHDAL
Source text: as §2, §3

Substance | Bob activation / calcium signals in Bob-transfected Ghost (3) cells, in words (Bob) | minimal concentration of gp120 resulting in a significant calcium flux (Bob; serial dilutions) | minimal concentration of gp120 resulting in a significant calcium flux (CCR8) | minimal concentration of gp120 resulting in a significant calcium flux ([1]; Ghost (3) parental line (expresses CXCR4 at very low levels)) | minimal concentration of gp120 resulting in a significant calcium flux ([1]; Ghost (3) parental line (expresses CXCR4 at very low levels), listed as IIIB) | minimal concentration of gp120 resulting in a significant calcium flux (CCR5) | minimal concentration of gp120 resulting in a significant calcium flux (CCR5; listed as IIIB) | minimal concentration of gp120 resulting in a significant calcium flux (CX3CR1) | minimal concentration of gp120 resulting in a significant calcium flux (CCR4) | minimal concentration of gp120 resulting in a significant calcium flux (Bob; 100 or 250 nM to at least 1 pM) | Bob activation / calcium signals in Bob-transfected Ghost (3) cells, in words (Bob; listed as SF2) | minimal concentration of gp120 resulting in a significant calcium flux ([1]; Ghost (3) parental line)
gp120IIIB: HIV-1 envelope surface protein gp120 of strain IIIB (X4 trophic), from the AIDS Research Reagent Referral Program | extremely potent activator | 15 fM | — | about 1 nM | 250 nM | about 1 nM | 250 nM | — | — |  |  | 
gp120SF2: gp120 of HIV strain SF2 (X4R5 trophic) |  |  | — |  |  | — |  | — | — | — | do not activate Bob; also recorded: did not cause calcium signals | —
